Assays:
Assay in all cases: cell-based or functional assay
[1] = biological target: HLA-B0702 (human)
[2] = biological target: HLA-A0201 (human)
[3] = biological target: HLA-B3501 (human)
[4] = biological target: HLA-DRB10401 (human)
[5] = biological target: HLA-B5701 (human)
[6] = biological target: HLA-DRB11104 (human)
[7] = biological target: HLA-B3503 (human)
[8] = biological target: HLA-C0401 (human)
[9] = biological target: HLA-B4001 (human)
[10] = biological target: HLA-A0203 (human)
[11] = biological target: HLA-A0101 (human)
[12] = biological target: HLA-A2402 (human)
[13] = biological target: HLA-DRB10402 (human)
[14] = biological target: HLA-A3101 (human)
[15] = biological target: HLA-B3801 (human)
[16] = biological target: HLA-B4402 (human)
[17] = biological target: HLA-B3802 (human)
[18] = biological target: HLA-B4701 (human)
[19] = biological target: HLA-B3901 (human)
[20] = biological target: HLA-DRB10101 (human)
[21] = biological target: HLA-C1701 (human)
[22] = biological target: HLA-B3508 (human)
[23] = biological target: HLA-A6901 (human)

Binder: GALRNPTAC [WT1 (-119)-(-111) GALRNPTAC]
- Cytotoxic CTL response, % (at 50:1) E:T ratio vs WT1+ allo APC with restricting HLA allele loaded with WT1 peptide [1]: 22%

Binder: NLYQMTSQLE [WT1 225-233 NLYQMTSQLE]
- Cytotoxic CTL response, % (at 50:1) E:T ratio vs WT1+ allo APC with restricting HLA allele loaded with WT1 peptide [2]: 28%

Binder: PSCLESQPA [WT1 135-143 PSCLESQPA]
- Cytotoxic CTL response, % (at 50:1) E:T ratio vs WT1+ allo APC with restricting HLA allele loaded with WT1 peptide [3]: 21%

Binder: KRPFMCAYPGC [WT1 320-334 KRPFMCAYPGC]
- Cytotoxic CTL response, % (at 50:1) E:T ratio vs WT1+ allo APC with restricting HLA allele loaded with WT1 peptide [4]: 0%

Binder: RDLNALLPAV [WT1 6-15 RDLNALLPAV]
- Cytotoxic CTL response, % (at 50:1) E:T ratio vs WT1+ allo APC with restricting HLA allele loaded with WT1 peptide [2]: 31%
- Cytotoxic CTL response, % (at 50:1) E:T ratio vs WT1+ allo APC with restricting HLA allele loaded with WT1 peptide [5]: 22%

Binder: RKFSRSDHL [WT1 390-398 RKFSRSDHL]
- Cytotoxic CTL response, % (at 50:1) E:T ratio vs WT1+ allo APC with restricting HLA allele loaded with WT1 peptide [2]: 27%

Binder: WNQMNLGATLK [WT1 238-248 WNQMNLGATLK]
- Cytotoxic CTL response, % (at 50:1) E:T ratio vs WT1+ allo APC with restricting HLA allele loaded with WT1 peptide [6]: 1%

Binder: SGQARMFPN [WT1 122-130 SGQARMFPN]
- Cytotoxic CTL response, % (at 50:1) E:T ratio vs WT1+ allo APC with restricting HLA allele loaded with WT1 peptide [7]: 41%
- Cytotoxic CTL response, % (at 50:1) E:T ratio vs WT1+ allo APC with restricting HLA allele loaded with WT1 peptide [8]: 41%

Binder: SAYGSLGGP [WT1 46-54 SAYGSLGGP]
- Cytotoxic CTL response, % (at 50:1) E:T ratio vs WT1+ allo APC with restricting HLA allele loaded with WT1 peptide [2]: 31%
- Cytotoxic CTL response, % (at 50:1) E:T ratio vs WT1+ allo APC with restricting HLA allele loaded with WT1 peptide [9]: 24%

Binder: LGATLKGVAA [WT1 243-252 LGATLKGVAA]
- Cytotoxic CTL response, % (at 50:1) E:T ratio vs WT1+ allo APC with restricting HLA allele loaded with WT1 peptide [10]: 21%

Binder: NLGATLKGV [WT1 242-250 NLGATLKGV]
- Cytotoxic CTL response, % (at 50:1) E:T ratio vs WT1+ allo APC with restricting HLA allele loaded with WT1 peptide [2]: 14%
- Cytotoxic CTL response, % (at 50:1) E:T ratio vs WT1+ allo APC with restricting HLA allele loaded with WT1 peptide [11]: 17%

Binder: PAPPPPPPP [WT1 58-66 PAPPPPPPP]
- Cytotoxic CTL response, % (at 50:1) E:T ratio vs WT1+ allo APC with restricting HLA allele loaded with WT1 peptide [2]: 18%

Binder: LDFAPPGAS [WT1 38-46 LDFAPPGAS]
- Cytotoxic CTL response, % (at 50:1) E:T ratio vs WT1+ allo APC with restricting HLA allele loaded with WT1 peptide [2]: 62%

Binder: RQRPHPGAL [WT1 (-125)-(-117) RQRPHPGAL]
- Cytotoxic CTL response, % (at 50:1) E:T ratio vs WT1+ allo APC with restricting HLA allele loaded with WT1 peptide [1]: 53%

Binder: LKTHTTRTHT [WT1 398-406 …]
- Cytotoxic CTL response, % (at 50:1) E:T ratio vs WT1+ allo APC with restricting HLA allele loaded with WT1 peptide [2]: 22%

Binder: NQGYSTVTF [WT1 146-154 NQGYSTVTF]
- Cytotoxic CTL response, % (at 50:1) E:T ratio vs WT1+ allo APC with restricting HLA allele loaded with WT1 peptide [11]: 15%

Binder: GYESDNHTT [WT1 269-278 GYESDNHTT]
- Cytotoxic CTL response, % (at 50:1) E:T ratio vs WT1+ allo APC with restricting HLA allele loaded with WT1 peptide [3]: 23%
- Cytotoxic CTL response, % (at 50:1) E:T ratio vs WT1+ allo APC with restricting HLA allele loaded with WT1 peptide [11]: 26%

Binder: NQMNLGATL [WT1 239-248 NQMNLGATL]
- Cytotoxic CTL response, % (at 50:1) E:T ratio vs WT1+ allo APC with restricting HLA allele loaded with WT1 peptide [12]: 2%

Binder: PLPHFPPSL [WT1 (-110)-(-102) PLPHFPPSL]
- Cytotoxic CTL response, % (at 50:1) E:T ratio vs WT1+ allo APC with restricting HLA allele loaded with WT1 peptide [2]: 24%

Binder: RTPYSSDNL [WT1 218-226 RTPYSSDNL]
- Cytotoxic CTL response, % (at 50:1) E:T ratio vs WT1+ allo APC with restricting HLA allele loaded with WT1 peptide [7]: 31%

Binder: GGCALPVSGA [WT1 22-31 GGCALPVSGA]
- Cytotoxic CTL response, % (at 50:1) E:T ratio vs WT1+ allo APC with restricting HLA allele loaded with WT1 peptide [2]: 25%

Binder: CMTWNQMNLGATLKG [WT1 235-249 CMTWNQMNLGATLKG]
- Cytotoxic CTL response, % (at 50:1) E:T ratio vs WT1+ allo APC with restricting HLA allele loaded with WT1 peptide [13]: 15%

Binder: HFPPSLPPT [WT1 (-107)-(-99) HFPPSLPPT]
- Cytotoxic CTL response, % (at 50:1) E:T ratio vs WT1+ allo APC with restricting HLA allele loaded with WT1 peptide [14]: 27%

Binder: HHAAQFPNH [WT1 166-174 HHAAQFPNH]
- Cytotoxic CTL response, % (at 50:1) E:T ratio vs WT1+ allo APC with restricting HLA allele loaded with WT1 peptide [15]: 17%

Binder: KLGAAEASA [WT1 (-27)-(-19) KLGAAEASA]
- Cytotoxic CTL response, % (at 50:1) E:T ratio vs WT1+ allo APC with restricting HLA allele loaded with WT1 peptide [2]: 22%

Binder: THSPTHPPR [WT1 (-99)-(-91) THSPTHPPR]
- Cytotoxic CTL response, % (at 50:1) E:T ratio vs WT1+ allo APC with restricting HLA allele loaded with WT1 peptide [2]: 21%
- Cytotoxic CTL response, % (at 50:1) E:T ratio vs WT1+ allo APC with restricting HLA allele loaded with WT1 peptide [9]: 31%

Binder: NMHQRNHTKL [WT1 436-445 NMHQRNHTKL]
- Cytotoxic CTL response, % (at 50:1) E:T ratio vs WT1+ allo APC with restricting HLA allele loaded with WT1 peptide [2]: 32%
- Cytotoxic CTL response, % (at 50:1) E:T ratio vs WT1+ allo APC with restricting HLA allele loaded with WT1 peptide [12]: 27%
- Cytotoxic CTL response, % (at 50:1) E:T ratio vs WT1+ allo APC with restricting HLA allele loaded with WT1 peptide [9]: 26%

Binder: ACRYGPFGP [WT1 106-114 ACRYGPFGP]
- Cytotoxic CTL response, % (at 50:1) E:T ratio vs WT1+ allo APC with restricting HLA allele loaded with WT1 peptide [16]: 23%

Binder: TDSCTGSQA [WT1 206-214 TDSCTGSQA]
- Cytotoxic CTL response, % (at 50:1) E:T ratio vs WT1+ allo APC with restricting HLA allele loaded with WT1 peptide [17]: 53%
- Cytotoxic CTL response, % (at 50:1) E:T ratio vs WT1+ allo APC with restricting HLA allele loaded with WT1 peptide [16]: 88%

Binder: LDFAPPGASAY [WT1 38-48 LDFAPPGASAY]
- Cytotoxic CTL response, % (at 50:1) E:T ratio vs WT1+ allo APC with restricting HLA allele loaded with WT1 peptide [13]: 71%

Binder: CHTPTDSCT [WT1 202-210 CHTPTDSCT]
- Cytotoxic CTL response, % (at 50:1) E:T ratio vs WT1+ allo APC with restricting HLA allele loaded with WT1 peptide [16]: 19%

Binder: ASGSEPQQM [WT1 (-8)-(1) ASGSEPQQM]
- Cytotoxic CTL response, % (at 50:1) E:T ratio vs WT1+ allo APC with restricting HLA allele loaded with WT1 peptide [3]: 51%

Binder: PGCLQQPEQ [WT1 (-47)-(-39) PGCLQQPEQ]
- Cytotoxic CTL response, % (at 50:1) E:T ratio vs WT1+ allo APC with restricting HLA allele loaded with WT1 peptide [2]: 27%
- Cytotoxic CTL response, % (at 50:1) E:T ratio vs WT1+ allo APC with restricting HLA allele loaded with WT1 peptide [18]: 25%

Binder: GAAQWAPVL [WT1 30-38 GAAQWAPVL]
- Cytotoxic CTL response, % (at 50:1) E:T ratio vs WT1+ allo APC with restricting HLA allele loaded with WT1 peptide [19]: 19%

Binder: CTGSQALLL [WT1 209-217 CTGSQALLL]
- Cytotoxic CTL response, % (at 50:1) E:T ratio vs WT1+ allo APC with restricting HLA allele loaded with WT1 peptide [11]: 26%

Binder: PGCLQQPEQQG [WT1 (-47)-(-37) PGCLQQPEQQG]
- Cytotoxic CTL response, % (at 50:1) E:T ratio vs WT1+ allo APC with restricting HLA allele loaded with WT1 peptide [20]: 25%

Binder: WNQMNLGAT [WT1 238-246 WNQMNLGAT]
- Cytotoxic CTL response, % (at 50:1) E:T ratio vs WT1+ allo APC with restricting HLA allele loaded with WT1 peptide [21]: 7%
- Cytotoxic CTL response, % (at 50:1) E:T ratio vs WT1+ allo APC with restricting HLA allele loaded with WT1 peptide [2]: 21%
- Cytotoxic CTL response, % (at 50:1) E:T ratio vs WT1+ allo APC with restricting HLA allele loaded with WT1 peptide [22]: 21%
- Cytotoxic CTL response, % (at 50:1) E:T ratio vs WT1+ allo APC with restricting HLA allele loaded with WT1 peptide [11]: 19%

Binder: TLGVAAGS [WT1 246-253 TLGVAAGS]
- Cytotoxic CTL response, % (at 50:1) E:T ratio vs WT1+ allo APC with restricting HLA allele loaded with WT1 peptide [23]: 57%

Binder: AILDFLLLQ [WT1 (-75)-(-67) AILDFLLLQ]
- Cytotoxic CTL response, % (at 50:1) E:T ratio vs WT1+ allo APC with restricting HLA allele loaded with WT1 peptide [2]: 17%

Binder: FMCAYPGCNK [WT1 323-332 FMCAYPGCNK]
- Cytotoxic CTL response, % (at 50:1) E:T ratio vs WT1+ allo APC with restricting HLA allele loaded with WT1 peptide [3]: 61%
- Cytotoxic CTL response, % (at 50:1) E:T ratio vs WT1+ allo APC with restricting HLA allele loaded with WT1 peptide [11]: 0%

Binder: HSFKHEDPM [WT1 174-182 HSFKHEDPM]
- Cytotoxic CTL response, % (at 50:1) E:T ratio vs WT1+ allo APC with restricting HLA allele loaded with WT1 peptide [3]: 63%

Reference: patent US20170334951A1 (Memorial Sloan Kettering, published 2017)
